Laboratory results published in publication PMC9340162, “The Central Circadian Clock Protein TaCCA1 Regulates Seedling Growth and Spike Development in Wheat (Triticum aestivum L.)”.

B1: DAP-1 (TraesCS1D02G226100 promoter, CHLG) (dsDNA)
DNA 1: TTATATGCCTATATGATATTATGATTTATTTGGTTT
DNA 2: AAACCAAATAAATCATAATATCATATAGGCATATAA
B2: DAP-2 (TraesCS1D02G295200 promoter) (dsDNA)
DNA 1: AAATAGAAAATTACTGATATTTCATCCTTGTGTGAT
DNA 2: ATCACACAAGGATGAAATATCAGTAATTTTCTATTT
B3: DAP-3 (TraesCS2B02G491700 promoter) (dsDNA)
DNA 1: CTTCAGATTTGTTGATATTTTCATATTGCAGACAT
DNA 2: ATGTCTGCAATATGAAAATATCAACAAATCTGAAG
B4: DAP-4 (TraesCS3B02G186700 promoter) (dsDNA)
DNA 1: AATAGAAAATTACTGATATTTCATCCTTATGAGATT
DNA 2: AATCTCATAAGGATGAAATATCAGTAATTTTCTATT

Columns and labels:
[1] = target: MBP-TaCCA1-7D fusion protein (Triticum aestivum (bread wheat)); experiment: BLI; ForteBio Octet RED 96e; streptavidin (SA) biosensors loaded with 10.0 ug/ml biotinylated recombinant TaCCA1-7D; TaCCA1-7A or TaCCA1-7B in solution at 10-630 nM, low to high concentration; KD as the ratio of dissociation and association rate constants
MBP-TaCCA1-7D [2] = target: T1, MBP-TaCCA1-7D (Triticum aestivum, UniProt A0A3B6TKA2 1-718); experiment: BLI; kon 1.35E+05 1/Ms; koff 2.42E-04 1/s; EMSA: 150 ng protein, 2 pM DIG probe, 10 ul, 1 h on ice, 6% PAGE in 0.5x TBE pH 8.0; BLI: Octet RED96e, SA sensors with biotinylated TaCCA1-7D; buffers not stated; conditions: protein: recombinant; tags: MBP (pMAL-c2X, N-terminal); biotinylated for BLI; label: 5' biotin; blunt
T1 sequence (A0A3B6TKA2 entry or part of it): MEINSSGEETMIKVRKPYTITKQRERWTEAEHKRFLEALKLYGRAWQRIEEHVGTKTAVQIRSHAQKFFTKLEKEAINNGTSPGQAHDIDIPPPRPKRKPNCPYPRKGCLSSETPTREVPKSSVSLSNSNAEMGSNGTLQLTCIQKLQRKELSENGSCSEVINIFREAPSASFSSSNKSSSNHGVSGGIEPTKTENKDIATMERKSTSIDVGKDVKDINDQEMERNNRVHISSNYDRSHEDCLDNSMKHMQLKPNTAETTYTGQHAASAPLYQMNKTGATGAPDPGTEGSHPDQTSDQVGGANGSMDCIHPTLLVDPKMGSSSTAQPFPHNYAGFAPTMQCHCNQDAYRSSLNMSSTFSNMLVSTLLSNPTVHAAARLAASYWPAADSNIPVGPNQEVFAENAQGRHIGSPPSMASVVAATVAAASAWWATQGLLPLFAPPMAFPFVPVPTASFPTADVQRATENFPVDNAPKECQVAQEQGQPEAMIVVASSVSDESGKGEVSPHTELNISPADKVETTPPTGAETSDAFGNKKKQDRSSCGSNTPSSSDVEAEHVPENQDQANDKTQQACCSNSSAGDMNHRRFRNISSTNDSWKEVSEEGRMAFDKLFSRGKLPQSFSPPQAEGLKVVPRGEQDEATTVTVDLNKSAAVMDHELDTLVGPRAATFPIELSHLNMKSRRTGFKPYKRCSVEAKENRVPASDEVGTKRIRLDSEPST

MBP-TaCCA1-7D [3] = target: T1, MBP-TaCCA1-7D; experiment: BLI; single-digit nM per text; exact value in Table S6 not in material; EMSA: 150 ng protein, 2 pM DIG probe, 10 ul, 1 h on ice, 6% PAGE in 0.5x TBE pH 8.0; BLI: Octet RED96e, SA sensors with biotinylated TaCCA1-7D; buffers not stated; conditions: protein: recombinant, tags: MBP (pMAL-c2X, N-terminal), biotinylated for BLI, blunt
[4] = label: 5' biotin (BLI), DIG (EMSA)

Row | Molecule | Kd [1] | koff [1] | kon [1] | Kd (MBP-TaCCA1-7D [3]; [4]) | other results
1 | TaCCA1-7B (natural protein) | 3.6 nM | 0.00133 s⁻¹ | 368000 M⁻¹ s⁻¹ | – | –
2 | TaCCA1-7A (natural protein) | 27.8 nM | 0.0012 s⁻¹ | 43000 M⁻¹ s⁻¹ | – | –
3 | B1 | – | – | – | – | Kd (MBP-TaCCA1-7D [2]): 1.79 nM
4 | B2 | – | – | – | < 10 nM | –
5 | B3 | – | – | – | < 10 nM | –
6 | B4 | – | – | – | – | Kd (MBP-TaCCA1-7D [3]; label: 5' biotin): < 10 nM
